US20110020437A1 (APIM THERAPEUTICS, published 2011)

Molecular target: T1, proliferating cell nuclear antigen (PCNA) (UniProt P12004 1-261)
T1 construct: Used both for endogenous PCNA of HeLa cell extracts (co-IP, cross-linking) and for the untagged 'PCNA' used as probe in the dot blot; also called endogenous PCNA
Assay: co-IP with anti-GFP antibodies from stably expressing cells, anti-PCNA western blot
Procedure: An in-house affinity purified rabbit polyclonal antibody raised against GFP protein, which also recognises EYFP and ECFP proteins, was covalently linked to protein-A paramagnetic beads (Dynal®) according to procedure from New England Biolabs® Inc (from now on called α-GFP beads). Each fraction was incubated with α-GFP beads (10 μl) during constant rotation at 4° C. over night (IP). After IP, the beads were washed 4 times with 200 μl 10 mM Tris-HCl, 50 mM KCl (pH 7.5), with 5 min incubation on ice in between. The beads were then resuspended in NuPAGE ® (Invitrogen) loading buffer and 1 mM DTT, heated, and separated on 10% or 4-12% Bis-Tris-HCl (NuPAGE®) gels and transferred to PVDF membranes (Imrnobilon®, Millipore). The membranes were blocked for 1 h in 5% low fat dry milk in PBST (PBS with 0.1% Tween® 20). The primary antibodies, α-PCNA (PC10, Santa Cruz biotechnology Inc.) and α-GFP were diluted in 1% dry milk in PBST and incubated for 1 h, followed by 1 h incubation with secondary antibodies, Polyclonal Rabbit Anti-mouse IgG/HRP and Polyclonal Swine Anti-rabbit IgG/HRP, respectively (DakoCytomation, Denmark). The membranes were treated with chemiluminescence reagent (SuperSignal® West Femto Maximum, PIERCE), and the proteins visualised in Kodak Image Station 2000R. […]

T1 sequence (P12004 whole entry): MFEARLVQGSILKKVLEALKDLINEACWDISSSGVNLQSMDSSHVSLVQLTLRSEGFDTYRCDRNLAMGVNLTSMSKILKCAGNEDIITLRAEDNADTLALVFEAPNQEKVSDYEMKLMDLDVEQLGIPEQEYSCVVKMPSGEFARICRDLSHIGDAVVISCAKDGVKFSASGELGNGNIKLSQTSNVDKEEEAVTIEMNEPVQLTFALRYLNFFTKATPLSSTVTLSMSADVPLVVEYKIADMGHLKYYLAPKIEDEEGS

binding result: no binding
B1: hABH211-261-EYFP (other, human, UniProt Q6NS38 11-261, looked up)
chain: GGLLRKQEEQEPTGEEPAVLGGDKESTRKRPRREAPGNGGHSAGPSWRHIRAEGLDCSYTVLFGKAEADEIFQELEKEVEYFTGALARVQVFGKWHSVPRKQATYGDAGLTYTFSGLTLSPKPWIPVLERIRDHVSGVTGQTFNFVLINRYKDGCDHIGEHRDDERELAPGSPIASVSFGACRDFVFRHKDSRGKSPSRRVAVVRLPLAHGSLLMMNHPTNTHWYHSLPVRKKVLAPRVNLTFRKILLTKK
notes: not shown: C-terminal EYFP tag (pEYFP-N1)
